This note sets out measurements from article PMC8590011, “WRN helicase safeguards deprotected replication forks in BRCA2-mutated cancer cells”.

This data set concerns the target FLAG-WRN (wild type) (UniProt Q14191 1-1432). The experiment in a line: EMSA; 2 mM ATPgS, 5 mM MgCl2; affinity similar to the K577M/E84A mutant; Kd is only in Supp Fig 1e, value not in material; 35 mM Tris-HCl pH 7.5, 20 mM KCl, 5 mM MgCl2, 0.1 mg/ml BSA, 2 mM DTT, 5% glycerol, 2 mM ATPgS, 2 nM DNA, 15 min at RT; 5% 1x TBE native PAGE at 4 C. The following applies: protein: recombinant; tags: N-terminal FLAG (6xHis removed with TEV); label: 5' 32P on oligo B (as described for the CF preparation); four-strand regressed fork: AB partial duplex annealed to CD partial duplex. (In general: In EMSA bound probe runs differently from free probe, usually more slowly.)

FLAG-WRN (wild type), sequence (Q14191 whole entry): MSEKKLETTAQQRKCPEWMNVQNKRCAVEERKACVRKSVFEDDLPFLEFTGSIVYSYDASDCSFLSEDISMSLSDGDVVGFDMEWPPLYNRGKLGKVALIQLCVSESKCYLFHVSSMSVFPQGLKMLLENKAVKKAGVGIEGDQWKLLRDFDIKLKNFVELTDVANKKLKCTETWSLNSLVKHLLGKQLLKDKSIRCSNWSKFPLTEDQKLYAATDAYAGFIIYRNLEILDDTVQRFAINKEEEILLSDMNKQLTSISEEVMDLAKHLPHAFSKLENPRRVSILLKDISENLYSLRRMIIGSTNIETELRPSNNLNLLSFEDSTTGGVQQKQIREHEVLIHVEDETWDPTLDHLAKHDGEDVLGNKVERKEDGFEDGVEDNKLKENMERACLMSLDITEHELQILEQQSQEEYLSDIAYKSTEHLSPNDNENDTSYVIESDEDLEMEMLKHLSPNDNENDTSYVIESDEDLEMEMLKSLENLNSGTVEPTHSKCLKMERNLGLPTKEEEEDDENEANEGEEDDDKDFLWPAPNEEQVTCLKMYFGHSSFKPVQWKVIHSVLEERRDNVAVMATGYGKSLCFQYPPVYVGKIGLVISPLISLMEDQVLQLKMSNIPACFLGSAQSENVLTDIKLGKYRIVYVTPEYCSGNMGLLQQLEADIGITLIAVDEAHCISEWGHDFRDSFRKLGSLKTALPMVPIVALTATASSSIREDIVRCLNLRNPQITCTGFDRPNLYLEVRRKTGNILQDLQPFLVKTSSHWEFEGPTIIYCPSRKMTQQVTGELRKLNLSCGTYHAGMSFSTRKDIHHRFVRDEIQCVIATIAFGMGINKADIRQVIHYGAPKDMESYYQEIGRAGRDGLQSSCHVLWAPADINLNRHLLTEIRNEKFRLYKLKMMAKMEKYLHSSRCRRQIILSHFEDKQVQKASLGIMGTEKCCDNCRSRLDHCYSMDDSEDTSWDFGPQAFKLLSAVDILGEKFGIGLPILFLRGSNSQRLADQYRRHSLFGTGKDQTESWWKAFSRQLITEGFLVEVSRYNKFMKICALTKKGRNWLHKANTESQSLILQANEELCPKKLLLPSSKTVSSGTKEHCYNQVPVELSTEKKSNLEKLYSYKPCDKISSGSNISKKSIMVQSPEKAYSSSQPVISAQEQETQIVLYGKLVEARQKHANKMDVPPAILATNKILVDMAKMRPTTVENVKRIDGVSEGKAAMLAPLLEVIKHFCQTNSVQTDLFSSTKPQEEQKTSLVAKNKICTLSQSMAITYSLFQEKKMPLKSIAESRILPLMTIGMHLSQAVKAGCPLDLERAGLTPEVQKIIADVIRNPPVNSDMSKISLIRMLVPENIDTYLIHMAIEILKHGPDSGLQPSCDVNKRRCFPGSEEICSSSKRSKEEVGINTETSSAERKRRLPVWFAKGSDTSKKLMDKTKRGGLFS

B1: chicken-foot (CF) reversed fork substrate, oligos A+B+C+D (structured_DNA)
DNA 1: CTTTAGCTGCATATTTACAACATGTTGACCTTCAGTACAATCTGCTCTGATGCCGCATAGTGTCATGCCAGAGCTTTGTAC
DNA 2: CGGGTGTCGGGGCGCATGACACTATGCGGCATCAGAGCAGATTGTACTGAAGGTCAACATGTTGTAAATATGCAGCTAAAG
DNA 3: GTACAAAGCTCTGGCATGATACTATGCGGCATCAGAGCAGATT
DNA 4: TCAGTACAATCTGCTCTGATGCCGCATAGTATCATGCGCCCCGACACCCG
modifications: iMe-isodC at position 38 of oligo A (written as C)
With B1, the binding result is listed as “binds”.
